According to PMC8909127 (Frontiers in Microbiology, 2022):
Where “and” joins values, the source holds several entries; their conditions need not be identical. Equal values may be shown once. No end group written: not given here.

T1: LNX2 PDZ2 (human, UniProt Q8N448 334-426)
T1 construct: second PDZ domain of human LNX2, residues 334-426, numbering of the full-length human protein; […]; Labelled on amines with RED-NHS dye for MST; also called LNX2-2; not shown: His tag, N-terminal, cleaved
T1 sequence (looked up): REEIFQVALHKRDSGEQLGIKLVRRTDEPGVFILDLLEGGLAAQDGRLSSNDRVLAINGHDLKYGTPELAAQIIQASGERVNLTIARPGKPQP

T2: MPP5 PDZ (human, UniProt Q8N3R9 238-336)
T2 construct: PDZ domain of human MPP5 (PALS1), residues 238-336, numbering of the full-length human protein; […]; Labelled on amines with RED-NHS dye for MST; also called PALS1 PDZ; not shown: GST, N-terminal, cleaved
T2 sequence (looked up): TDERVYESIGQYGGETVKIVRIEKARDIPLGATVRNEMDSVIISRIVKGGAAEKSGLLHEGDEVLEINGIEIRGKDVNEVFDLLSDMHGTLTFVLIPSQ

T3: MLLT4 PDZ (human, UniProt P55196 1002-1095)
T3 construct: PDZ domain of human MLLT4 (Afadin); the residues named in the structure (1014-1022, 1071) fit 1002-1095; also called Afadin PDZ; not shown: His tag, N-terminal, cleaved; MBP, N-terminal, cleaved
T3 sequence (looked up): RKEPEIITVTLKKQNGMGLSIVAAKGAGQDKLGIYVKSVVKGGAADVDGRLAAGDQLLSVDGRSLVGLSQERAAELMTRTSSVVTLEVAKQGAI

B1: C-terminal SARS-CoV-2-E PBM peptide (peptide)
peptide: NLNSSRVPDLLV
notes: also called SARS-CoV-2 WT; SARS-CoV-2 peptide E
B2: ZO-1 PDZ2 (domain or fragment, human, UniProt Q07157 184-264, looked up)
chain: PTKVTLVKSRKNEEYGLRLASHIFVKEISQDSLAARDGNIQEGDVVLKINGTVTENMSLTDAKTLIERSKGKLKMVVQRDE
notes: second PDZ domain of human ZO-1 (TJP1), residues 184-264, numbering of the full-length human protein; […]; Labelled on amines with RED-NHS dye for MST; also called TJP1 PDZ2; ZO-1-2
B3: MLLT4-PBM: MLLT4-PDZ prepared with an excess of protein E PBM peptide (protein)
chain: RKEPEIITVTLKKQNGMGLSIVAAKGAGQDKLGIYVKSVVKGGAADVDGRLAAGDQLLSVDGRSLVGLSQERAAELMTRTSSVVTLEVAKQGAI
modifications: left off: His tag, N-terminal, cleaved | MBP, N-terminal, cleaved
notes: MLLT4-PDZ prepared with an excess of protein E PBM peptide
B4: ZO-1: PDZ2 domain of ZO-1, residues 184-264, at 1 mg/mL (protein)
chain: PTKVTLVKSRKNEEYGLRLASHIFVKEISQDSLAARDGNIQEGDVVLKINGTVTENMSLTDAKTLIERSKGKLKMVVQRDE
modifications: left off: His tag, N-terminal, state not stated
notes: PDZ2 domain of ZO-1, residues 184-264, at 1 mg/mL

Tests used:
GST alone = experiment: GST pull-down, GST alone (negative control); format: binding; conditions: GST alone as bait; HEK293 cell lysates; anti-GFP Western blot
Experimental: (§1) To investigate whether the five PDZ domains can interact with the full-length E protein and in a PBM-dependent manner, glutathione S-transferase (GST) pull-down assays were performed with the purified GST-tagged PDZ domains of ZO-1, LNX2, PARD3, MLLT4, and MPP5 and the lysates of HEK293 cells overexpressing constructs of GFP alone, GFP-tagged wild-type full-length E protein (GFP-E-WT), GFP-tagged full-length E protein with the PBM mutated with glycines (GFP-E-GGGG), and GFP-tagged cytoplasmic tail of protein E (last 12 residues; GFP-E last 12 aa) designated 1, 2, 3, and 4 in Figure 2 (Figure 2A). The GFP-tagged construct expression was assessed by examining the fluorescence emitted by the GFP by microscopy and by Western blot on the cell lysates using anti-GFP antibody (Figure 2B). GST alone was used as a negative control. We confirmed by using Ponceau S staining that equal amounts of GST-tagged protein constructs were bound to the GST resin (Figure 2C).
(§2) Glutathione S-transferase alone and its fusion with PDZ ZO1, PDZ LNX2, PDZ MLLT4, PDZ MPP5, and PDZ PARD3 are used as baits and were immobilized on glutathione beads and tested for their ability to pull down GFP alone, GFP-E-WT, GFP-E-GGGG, and GFP-E last 12 aa by Western blot using the anti-GFP antibody. After washing, identical amounts of beads were analyzed for the presence of GFP-tagged proteins. […]

GST-PDZ PARD3 = experiment: GST pull-down, GST-PDZ PARD3; format: binding, human; conditions: HEK293 cell lysates; 2 h at 4°C with glutathione resins; anti-GFP Western blot
Experimental: as §1, §2

GST-PDZ MLLT4 = experiment: GST pull-down, GST-PDZ MLLT4; format: binding, human; conditions: HEK293 cell lysates; 2 h at 4°C with glutathione resins; anti-GFP Western blot
Experimental: as §1, §2

GST-PDZ LNX2 = experiment: GST pull-down, GST-PDZ LNX2; format: binding, human; conditions: HEK293 cell lysates; 2 h at 4°C with glutathione resins; anti-GFP Western blot
Experimental: as §1, §2

GST-PDZ MPP5 = experiment: GST pull-down, GST-PDZ MPP5; format: binding, human; conditions: HEK293 cell lysates; 2 h at 4°C with glutathione resins; anti-GFP Western blot
Experimental: as §1, §2

GST-PDZ ZO1 = experiment: GST pull-down, GST-PDZ ZO1; format: binding, human; conditions: HEK293 cell lysates; 2 h at 4°C with glutathione resins; anti-GFP Western blot
Experimental: as §1, §2

LNX2 PDZ2 = molecular target: T1, LNX2 PDZ2; experiment: MST; […]; PBS tween 20 0.05%; room temperature; […]; duplicate; conditions: both partners purified
MPP5 PDZ = molecular target: T2, MPP5 PDZ; experiment: as above; conditions: both partners purified
ZO-1 PDZ2 = molecular target: B2; experiment: as above; conditions: both partners purified
MLLT4 PDZ = molecular target: T3, MLLT4 PDZ; experiment: as above; conditions: both partners purified
PARD3 PDZ3 = molecular target: T4, PARD3 PDZ3 (human, UniProt Q8TEW0 582-685); experiment: as above; conditions: both partners purified
T4 construct: third PDZ domain of human PARD3, residues 582-685, numbering of the full-length human protein; […]; Labelled on amines with RED-NHS dye for MST; also called PARDD3-3; not shown: His tag, N-terminal, cleaved

[1] = molecular target: the molecule itself; experiment: AUC; sedimentation velocity, ZO-1-PDZ2 at 1 mg/mL; Tris 50 mM pH 7.5, NaCl 150 mM, TCEP 0.5 mM; 20°C, 42,000 rpm
[2] = Analytical ultracentrifugation; format: physicochemical; conditions: 1 mg/mL, 20°C; for Oligomeric state in solution: AUC; for Oligomeric state in solution / Frictional ratio f/f0 (average) / Molecular weight estimated by analytical ultracentrifugation (AUC) / Peak proportion: pH 7.5; for Frictional ratio f/f0 (average): average over peaks; for Sedimentation coefficient: Tris 50 mM pH 7.5, NaCl 150 mM, TCEP 0.5 mM, 42,000 rpm, MLLT4-PDZ with excess of E PBM peptide
Experimental: ZO-1-PDZ2 and MLLT4-PDZ were prepared at 1 mg/mL. MLLT4-PDZ was prepared with an excess of protein E PBM peptide. Samples were prepared in Tris 50 mM pH 7.5, NaCl 150 mM, and TCEP 0.5 mM. A sample of 400 μl was loaded into 1.2-cm double-sector cells between two sapphire windows. […] Sedimentation profiles were monitored over time by absorbance measurement at 280 nm and by interferometry. The data were analyzed using the continuous size distribution model c(s) of the Sedfit 16.36 software. All distributions were calculated with a floating frictional ratio f/f0 and a maximum entropy regularization procedure with a confidence level of 0.68. The buffer viscosity (η = 0.01031 Poise), the density (ρ = 1.0059), and the partial specific volume of 0.746 for MLLT4 and 0.736 for Z0-1 were estimated at 20°C from the amino acid sequences at 20°C using the software SEDTERP 3.0.3.^3

T4 sequence (Q8TEW0 582-685): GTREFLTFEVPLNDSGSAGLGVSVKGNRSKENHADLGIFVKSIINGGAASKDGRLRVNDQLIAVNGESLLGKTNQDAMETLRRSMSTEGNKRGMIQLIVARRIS

| Molecule | Oligomeric state in solution [2] | Frictional ratio f/f0 (average) [2] | Sedimentation coefficient ([2]; peak 1) [S] | Molecular weight estimated by analytical ultracentrifugation (AUC) ([2]; peak 1) [kDa] | Peak proportion ([2]; peak 1) [%] | Sedimentation coefficient ([2]; peak 2) [S] | Molecular weight estimated by analytical ultracentrifugation (AUC) ([2]; peak 2) [kDa] | Peak proportion ([2]; peak 2) [%] | Sedimentation coefficient ([2]; peak 3) [S] | Molecular weight estimated by analytical ultracentrifugation (AUC) ([2]; peak 3) [kDa] | also measured |
| --- | --- | --- | --- | --- | --- | --- | --- | --- | --- | --- | --- |
| GFP-E last 12 aa (NLNSSRVPDLLV; also: fused to GFP, attachment end not given here) |  |  |  |  |  |  |  |  |  |  | GFP-tagged protein in bound fraction (GST alone): not detected; GFP-tagged protein in bound fraction (GST-PDZ PARD3): detected in all interactions with GST-PDZ domains; GFP-tagged protein in bound fraction (GST-PDZ MLLT4): detected in all interactions with GST-PDZ domains; GFP-tagged protein in bound fraction (GST-PDZ LNX2): detected in all interactions with GST-PDZ domains; GFP-tagged protein in bound fraction (GST-PDZ MPP5): detected in all interactions with GST-PDZ domains; GFP-tagged protein in bound fraction (GST-PDZ ZO1): detected in all interactions with GST-PDZ domains |
| B1 |  |  |  |  |  |  |  |  |  |  | Kd (LNX2 PDZ2): 289 µM; Kd (MPP5 PDZ): 30 µM; Kd (ZO-1 PDZ2): 15 µM; Kd (MLLT4 PDZ): 569 µM; Kd (PARD3 PDZ3): 341 µM |
| B2 |  |  |  |  |  |  |  |  |  |  | stoichiometry N [1]: 2 and ~4 |
| B3 | mainly monomeric in solution | 1.2 | 0.5 | 2.8 | 25 | 1.4 | 12 | 65 | 2.3 | 26 | Peak proportion ([2]; peak 3): 10% |
| B4 | one dimeric form and one higher oligomeric state possibly compatible with a tetramer in solution | 1.4 | 2.1 | 26 | 49 | 2.8 | 40 | 49 | 3.7 | 60 |  |
